Source: patent US20140056903A1 (Regeneron, published 2014)

Columns and labels:
[1] = biological target: T1, cynomolgus GFRα3 on HEK293/MfGFRα3/MfRet/SRE-Luc cells (cynomolgus, UniProt O60609 1-400 (human entry), limits assumed); test: cell-based or functional assay
T1 chain: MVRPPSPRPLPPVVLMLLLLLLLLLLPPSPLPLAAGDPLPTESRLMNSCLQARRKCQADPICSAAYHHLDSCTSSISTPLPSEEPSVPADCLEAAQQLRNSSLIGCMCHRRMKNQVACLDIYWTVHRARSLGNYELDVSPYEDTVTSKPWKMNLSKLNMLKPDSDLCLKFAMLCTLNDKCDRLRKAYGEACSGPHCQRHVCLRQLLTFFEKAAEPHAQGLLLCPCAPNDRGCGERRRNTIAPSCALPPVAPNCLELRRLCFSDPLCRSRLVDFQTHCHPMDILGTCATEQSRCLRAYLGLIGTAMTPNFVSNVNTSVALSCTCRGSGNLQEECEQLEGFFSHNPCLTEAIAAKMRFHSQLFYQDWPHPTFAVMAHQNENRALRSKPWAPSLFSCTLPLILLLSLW

[2] = biological target: T2, human GFRα1 expressed with a C-terminal human Fc tag and a hexahistidine tag (human, UniProt P56159 25-429, limits assumed); test: BLI Octet, antigen captured on anti-hFc tips
T2 construct: bought protein; also called hGFRα1-hFc-6His; hGFRα1-hFc-6his
T2 sequence (looked up): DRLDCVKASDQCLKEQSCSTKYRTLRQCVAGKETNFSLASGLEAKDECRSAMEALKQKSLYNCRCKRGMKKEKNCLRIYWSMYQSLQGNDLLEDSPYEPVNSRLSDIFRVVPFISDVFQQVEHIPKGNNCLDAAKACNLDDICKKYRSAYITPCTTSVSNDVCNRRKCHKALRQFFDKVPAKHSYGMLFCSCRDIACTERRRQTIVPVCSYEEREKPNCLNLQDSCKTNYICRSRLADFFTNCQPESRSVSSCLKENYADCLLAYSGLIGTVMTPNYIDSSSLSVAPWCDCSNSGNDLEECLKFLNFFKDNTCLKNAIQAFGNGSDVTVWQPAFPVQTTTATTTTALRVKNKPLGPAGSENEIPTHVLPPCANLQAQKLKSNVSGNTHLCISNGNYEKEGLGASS
Method: The ability of anti-GFRα3 antibodies to bind to GDNF-family receptors was assessed using an Octet Red biosensor (Fortebio, Inc.). Antibodies were tested for binding to either human GFRα1 expressed with a C-terminal human Fc tag and a hexahistidine tag (hGFRα1-hFc-6His, R&D Systems #714-GR), human GFRα1 expressed with only a C-terminal human Fc tag (hGFRα1-hFc; SEQ ID: 376), human GFRα2 expressed with a C-terminal human Fc tag and a hexahistidine tag (hGFRα2-hFc-6His, R&D Systems #613-FR), human GFRα3 expressed with a C-terminal human Fc tag (hGFRα3-hFc, SEQ ID:371), or an irrelevant human Fc tagged protein. Antigens were captured onto anti-human Fc sensor tips from 10 ug/mL solutions for 5 minutes. The coated sensor tips were then blocked with a 100 ug/mL solution of irrelevant human Fc antibodies for 5 minutes. Blocked sensor tips were then submerged into wells containing […] of each anti-GFRα3 antibody or buffer alone for 10 minutes. The experiment was performed at 25° C. with a flow rate of 1000 rpm using HBST+BSA buffer (10 mM HEPES, 150 mM NaCl, 3 mM EDTA, 0.05% w/v Surfactant P20, 0.1 mg/mL BSA, pH 7.4). The binding response (measured in units of nm) at each step of the experiment was monitored and recorded.

[3] = biological target: T3, human GFRα3 expressed with a C-terminal myc-myc-hexahistidine tag (human, UniProt O60609 32-374, biotinylated (sites not given) in ELISA format 2 and in the Octet cross-competition; not in SPR); test: blocking ELISA 2, biotin-hGFRα3-mmH to coated hARTEMIN-mmH + hRET-10His; IC50 cell 'enhancer'
T3 construct: also called hGFRα3-mmh; hGFRα3-mmH
Method: The equilibrated sample solutions were then transferred to the hARTEMIN-mmH-coated plate. […] Absorbance was recorded at 450 nm on a Victor X5 plate reader (Perkin Elmer) to determine the amount of free hGFRα3-hFc in the pre-equilibrated hGFRα3-hFc-antibody solutions that was able to bind to the plate coated with hARTEMIN-mmH. IC₅₀ values, defined as the concentration of antibody required to reduce the signal from a constant concentration of hGFRα3-hFc by 50%, were calculated from the data using Prism software from GraphPad. The absorbance measured at the constant amount of 120 pM hGFRα3-hFc in the absence of anti-GFRα3 antibody is defined as 0% blocking and the absorbance with no added hGFRα3-hFc is defined as 100% blocking. The observed absorbance in the wells containing the highest antibody concentration was used to calculate the maximum blocking percent shown in the table.
In the second ELISA format, the plates, samples and data were processed similarly as for the first format except both hARTEMIN-mmH and human RET with a C-terminal 10 histidine tag (hRET-10His; R&D Systems, #1168-CR/CF) were coated for the blocking ELISA experiment. The 96-well microtiter plates were coated with a mixture of 1.2 ug/ml hARTEMIN-mmH and 6.9 ug/ml hRET-10His proteins in PBS overnight at 4° C. and then blocked with a solution of 0.5% (w/v) BSA. A constant amount of biotinylated human GFRα3 with a C-terminal myc-myc-hexahistidine tag (biotin-hGFRα3-mmH; SEQ ID:370) at 1 nM was pre-mixed with varied amounts of anti-GFRα3 antibodies, ranging from 0 to ˜100 nM in serial dilutions, followed by a 1 hour incubation at RT to allow antibody-biotin-hGFRα3-mmH binding to reach equilibrium. The equilibrated samples were then transferred to the coated plate. After 1 hour of binding, the plate was washed, then the bound biotin-hGFRα3-mmH was detected using HRP conjugated streptavidin (Pierce, #N200), and colorimetric signals were developed using TMB HRP substrates.

T3 sequence (O60609 other isoform, or with tags, fused parts or gaps limits assumed): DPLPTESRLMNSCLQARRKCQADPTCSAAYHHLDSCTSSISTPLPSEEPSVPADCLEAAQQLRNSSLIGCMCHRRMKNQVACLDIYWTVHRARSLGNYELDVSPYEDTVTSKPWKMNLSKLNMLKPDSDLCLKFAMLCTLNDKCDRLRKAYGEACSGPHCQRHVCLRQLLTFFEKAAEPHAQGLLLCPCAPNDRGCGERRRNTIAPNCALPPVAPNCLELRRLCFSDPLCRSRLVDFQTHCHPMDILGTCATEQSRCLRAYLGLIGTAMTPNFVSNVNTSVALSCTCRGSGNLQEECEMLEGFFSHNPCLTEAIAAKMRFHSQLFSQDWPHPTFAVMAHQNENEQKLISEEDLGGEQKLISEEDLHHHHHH

| IC50 (SRE-luc, HEK293/MfGFRα3/MfRET cells, 500 pM human ARTEMIN-MMH) [1] [nM] | binding result [2] | % max blocking [3] [%] | Binder |
| --- | --- | --- | --- |
|  |  | 44 | H4H2295S (antibody, human IgG4, V domains shown, human IgG4 Fc (H4H)) VH: EVQLVESGGGLVQAGGSLRLSCVASGFTFSSYAMSWVRQAPGKGLEWVSAISGSGGSTYSADSVKGRFTISRDNSKNTLYLQMNSLRAEDTAVYYCTKPSSYSSSNFYYGMDVWGQGTTVTVSS VL: DIQMTQSPSSVSASVGDRVTITCRASQGISSWLAWYQQKPGKAPKLLIYTASSLQSGVPSRFSGSGSRTDFTLTISSLQPEDFATYYCQQTNSLPLTFGPGTKVEIK |
|  |  | 95 | H4H2355S (antibody, human IgG4, V domains shown, human IgG4 Fc (H4H)) VH: EVQLVESGGGLVQPGGSLRLSCAASGFTFSSYAMSWVRQVPGKGLEWVSAISGSGDNTYNAESVKGRFTISRDNSKNMLYLQMNSLRAEDTAVYYCAKTKFSSSLLFDYWGQGTLVTVSS VL: not shown |
| 2.5 | no binding (tested: 100 ug/mL) |  | H4H2342P (antibody, human IgG4, V domains shown, human IgG4 Fc (H4H)) VH: EVQLLESGGGLVQPGGSLRLSCAASGFTFSTYAMSWVRQAPGKGLEWVSAIRGNGVNTYYGDSMKGRFTISRDNSKDTLYLQMNSLRAEDTAVYYCAKNKWELLVFEYWGQGTLVTVSS VL: DIQMTQSPSSLSASVGDRVTITCRASQDISNYLAWYQQKPGKVPKLLIYAASTLQSGVPFRFSGSGSGTDFTLTISSLQPEDVATYYCQKYNSAPPFGPGTKVDIK |
| 1.3 | no binding (tested: 100 ug/mL) |  | H4H2352S (antibody, human IgG4, V domains shown, human IgG4 Fc (H4H); also called H4H2352S-1) VH: EVQLVQSGAEVKKPGASVKVSCKASGYTFTNYGITWVRQAPGQGLEWMGWISAYNGNTGYAQKFQGRVTMTTDTSTSTAYMELRSLRSDDTAVYYCAREDYDFWRAFDIWGQGTMVTVSS VL: EIVLTQSPGTLSLSPGERATLSCRASQSVSSTYLAWLQQKPGQAPRLLIYGASSRATGIPDRFSGSGSGTDFTLTINRLEPEDFAVYYCQQYAYSPYTFGQGTKLEIK |

The remaining lines, values behind:

| Binder | IC50 (SRE-luc, HEK293/MfGFRα3/MfRET cells, 500 pM human ARTEMIN-MMH) [1] [nM] | binding result [2] | % max blocking [3] [%] |
| --- | --- | --- | --- |
| H4H2292S (antibody, human IgG4, V domains shown, human IgG4 Fc (H4H)) VH: EVQLVESGGGVVQPGRSLRLSCAASGFTFSSYGMHWVRQAPGKGLEWVSFIWYDGSNKYYADSVKGRFTISRDNSKNTLYLQMNSLTAEDTAVYYCARRGILTGTTAFDIWGQGTMVTVSS VL: DIQMTQSPSSLSASVGDRVTITCRASQSISSYLNWYQQKPGKAPKLLIYAASSLQSGVPSRFSGSGSGTDFTLTIRSLIPEDFATYYCQQTYNTPFTFGPGTKVEIK | 1.5 | no binding (tested: 100 ug/mL) |  |
| H4H2291S (antibody, human IgG4, V domains shown, human IgG4 Fc (H4H)) VH: EVQLVESGGGLVQPGESLRLSCAASGFTFSNYAMSWVRQAPGKGLEWVSVISGSGGSTYYADSVKGRFTMSRDNSKNTLYLQMNSLRAEDTAVYYCAKPPSRAARYFNYGMDVWGQGTTVTVSS VL: AIRMTQSPSSVSASVGDRVTITCRASQGISSWLAWYQQKPGKAPKLLIYAASSLQSGVPSRFSGSGSGTDFTLTISSLQPEDFATYYCQQANSFPFTFGGGTKVEIK |  |  | 28 |
| H4H2296S (antibody, human IgG4, V domains shown, human IgG4 Fc (H4H)) VH: not shown VL: DIVMTQSPSSVSASVGDRVTITCRASQGISSWLAWYQQKPGKAPKLLIYAASSLRSGVPSRFSGSGSGTDFTLTITSLQPEDFATYYCQHTNSFPFTFGPGTKVEIK |  |  | 91 |
| H4H2294S (antibody, human IgG4, V domains shown, human IgG4 Fc (H4H)) VH: EVQLVESGGGLVQPGGSLRLSCAASGFTFSSYAMSWVRQAPGKGLEWVSVISGSGGSTYYADAVKGRFTISRDNSKHTLYLQMNSLRAEDTAVYYCTKPSSYSSSNFYYGMDVWGQGSTVTVSS VL: DIQLTQSPSSVSASVGDRVTITCRASQGISSWLAWYQQKPGKAPKLLIYAASSLQSGVPSRFSGSGSGTDFTLTISSLQPEDFATYYCQQTNSFPFPFGPGTKVDIK | 0.7 | no binding (tested: 100 ug/mL) |  |
| H4H2236N3 (antibody, human IgG4, V domains shown, human IgG4 Fc (H4H)) VH: EVQLLESGGNLVQPGGSLRLSCAASGFTFSSYAMTWVRQAPGKGLEWVSTISGSGTSTYYADSVKGRFTISRDNSRDTVFLQMNSLRAEDTAVYYCSKPSALRFLHWLAMDVWGQGTLVTVSS VL: DIQMTQSPSSLSAFVGDRVTITCRASQDIRNYLDWFQQKPGKAPKSLIYAASNLQSGVPSRFGGSGSGTDFTLTINSLQPEDFVTYYCQQYNSYPPTFGGGTKVEIK |  |  | 68 |
| H4H2243N2 (antibody, human IgG4, V domains shown, human IgG4 Fc (H4H)) VH: QVQLVQSGAEVKKPGASVKVSCKASGYTFTSYGIIWVRQAPGQGLEWMGWISGYNGNTNYAQNLQGRVTMTTDTSTTTAYMELRSLRSDDTAVYYCARWGIATRPYYYYGMDVWGQGTTVTVSS VL: DIQMTQSPSSLSASVGDRVTITCRASQDITNYLAWFQQKPGKAPKSLIYAASSLQSGVPSKFSGSGSGTDFTLTISSLQPEDFATYYCQQYNSYPPTFGPGTKVDIK | 0.8 | no binding (tested: 100 ug/mL) |  |
| H4H2212N (antibody, human IgG4, V domains shown, human IgG4 Fc (H4H)) VH: EVQLLESGGGLVQPGGSLRLSCAASGFTFSSYAMSWVRQGPGKGLEWVSGISGSGGSTYNADSVKGRFTISRDNSKNTLYLQMNSLRAEDTAVYYCAKDSGTYWYYFDYWGQGILVTVSS VL: not shown | 1.8 |  |  |
